Experiment [1] has as its target Fc-tagged human IL-2 receptor subunit alpha, extracellular domain (hIL-2 Ra-Fc) (human) (UniProt P01589).
Experiment [2] has as its target Fc-tagged human IL-2 receptor beta subunit extracellular domain (hIL-2 Rb-Fc) (human) (UniProt P14784).
The target of experiment [3] is Fc-tagged human IL-2 receptor alpha subunit extracellular domain (hIL-2 Ra-Fc) (human) (UniProt P01589).

This is an account of results in PMC8352909.

UniProt P14784, sequence (P14784 27-240): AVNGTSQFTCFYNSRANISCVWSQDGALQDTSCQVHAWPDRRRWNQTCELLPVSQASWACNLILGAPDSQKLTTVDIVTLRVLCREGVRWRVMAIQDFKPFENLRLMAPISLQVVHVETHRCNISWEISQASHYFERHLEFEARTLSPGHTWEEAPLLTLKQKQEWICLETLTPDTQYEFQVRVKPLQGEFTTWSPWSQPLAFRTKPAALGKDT

Consider “IL-2 P65 AzK (replacement of proline 65 with AzK, without PEG attachment) (from UniProt P60568 21-153) (ligand)”, for which the potency (EC50) of pSTAT5 induction in Treg cells of human PBMC, PEG size study in experiment [1] worked out at 5450 pg/mL.

“IL-2 with E62 replaced with AzK, pegylated with 10 kDa mPEG (from UniProt P60568 21-153) (ligand)” had a Supplementary Table 1: βγ EC50 (nM), DiscoverX PathHunter IL-2 receptor βγ assay; row E62 in experiment [2] of 3 nM. As for “IL-2 with E62 replaced with AzK, pegylated with 30 kDa mPEG (from UniProt P60568 21-153) (ligand)”, the Supplementary Table 1: αβγ EC50 (nM), DiscoverX PathHunter IL-2 receptor αβγ assay; row E62* in experiment [3] was 2.84 nM. This substance also returned a Supplementary Table 1: βγ EC50 (nM), DiscoverX PathHunter IL-2 receptor βγ assay; row E62* in experiment [2] of 7.46 nM.

“IL-2 with E68 replaced with AzK, pegylated with 30 kDa mPEG (from UniProt P60568 21-153) (ligand)” gave a Supplementary Table 1: αβγ EC50 (nM), DiscoverX PathHunter IL-2 receptor αβγ assay; row E68* in experiment [3] of 0.09 nM. The Supplementary Table 1: βγ EC50 (nM), DiscoverX PathHunter IL-2 receptor βγ assay; row E68* in experiment [2] is 7.7 nM.

For the substance “IL-2 with F42 replaced with AzK, pegylated with 10 kDa mPEG (from UniProt P60568 21-153) (ligand)”, the Supplementary Table 1: αβγ EC50 (nM), DiscoverX PathHunter IL-2 receptor αβγ assay; row F42 in experiment [3] was 0.52 nM. In addition, the Supplementary Table 1: βγ EC50 (nM), DiscoverX PathHunter IL-2 receptor βγ assay; row F42 in experiment [2] was determined as 6.09 nM. Substance “IL-2 with K35 replaced with AzK, pegylated with 10 kDa mPEG (from UniProt P60568 21-153) (ligand)” returned a Supplementary Table 1: βγ EC50 (nM), DiscoverX PathHunter IL-2 receptor βγ assay; row K35 in experiment [2] of 6.75 nM. For “IL-2 with K43 replaced with AzK, pegylated with 10 kDa mPEG (from UniProt P60568 21-153) (ligand)”, in experiment [3], the Supplementary Table 1: αβγ EC50 (nM), DiscoverX PathHunter IL-2 receptor αβγ assay; row K43 amounted to 0.13 nM. The substance further returned a Supplementary Table 1: βγ EC50 (nM), DiscoverX PathHunter IL-2 receptor βγ assay; row K43 in experiment [2] of 9.84 nM. On to “IL-2 with R38 replaced with AzK, pegylated with 10 kDa mPEG (from UniProt P60568 21-153) (ligand)”, for which the Supplementary Table 1: αβγ EC50 (nM), DiscoverX PathHunter IL-2 receptor αβγ assay; row R38 in experiment [3] worked out at 0.17 nM. Further, the Supplementary Table 1: βγ EC50 (nM), DiscoverX PathHunter IL-2 receptor βγ assay; row R38 in experiment [2] worked out at 4.16 nM.

As for “IL-2 with T41 replaced with AzK, pegylated with 10 kDa mPEG (from UniProt P60568 21-153) (ligand)”, the Supplementary Table 1: αβγ EC50 (nM), DiscoverX PathHunter IL-2 receptor αβγ assay; row T41 in experiment [3] turned out to be 0.05 nM. In addition, in experiment [2], the Supplementary Table 1: βγ EC50 (nM), DiscoverX PathHunter IL-2 receptor βγ assay; row T41 came to 6.37 nM. Take “IL-2 with V69 replaced with AzK, pegylated with 30 kDa mPEG (from UniProt P60568 21-153) (ligand)”: the Supplementary Table 1: αβγ EC50 (nM), DiscoverX PathHunter IL-2 receptor αβγ assay; row V69* in experiment [3] was 0.08 nM. This substance registered a Supplementary Table 1: βγ EC50 (nM), DiscoverX PathHunter IL-2 receptor βγ assay; row V69* in experiment [2] of 9.99 nM. “IL-2 with Y45 replaced with AzK, pegylated with 10 kDa mPEG (from UniProt P60568 21-153) (ligand)”: in experiment [3], the Supplementary Table 1: αβγ EC50 (nM), DiscoverX PathHunter IL-2 receptor αβγ assay; row Y45 worked out at 0.11 nM. The Supplementary Table 1: βγ EC50 (nM), DiscoverX PathHunter IL-2 receptor βγ assay; row Y45 in experiment [2] was 9.06 nM.
